This assay concerns the target T1, recombinant full-length Vps41 (S. cerevisiae, UniProt P38959 1-992).
T1 sequence: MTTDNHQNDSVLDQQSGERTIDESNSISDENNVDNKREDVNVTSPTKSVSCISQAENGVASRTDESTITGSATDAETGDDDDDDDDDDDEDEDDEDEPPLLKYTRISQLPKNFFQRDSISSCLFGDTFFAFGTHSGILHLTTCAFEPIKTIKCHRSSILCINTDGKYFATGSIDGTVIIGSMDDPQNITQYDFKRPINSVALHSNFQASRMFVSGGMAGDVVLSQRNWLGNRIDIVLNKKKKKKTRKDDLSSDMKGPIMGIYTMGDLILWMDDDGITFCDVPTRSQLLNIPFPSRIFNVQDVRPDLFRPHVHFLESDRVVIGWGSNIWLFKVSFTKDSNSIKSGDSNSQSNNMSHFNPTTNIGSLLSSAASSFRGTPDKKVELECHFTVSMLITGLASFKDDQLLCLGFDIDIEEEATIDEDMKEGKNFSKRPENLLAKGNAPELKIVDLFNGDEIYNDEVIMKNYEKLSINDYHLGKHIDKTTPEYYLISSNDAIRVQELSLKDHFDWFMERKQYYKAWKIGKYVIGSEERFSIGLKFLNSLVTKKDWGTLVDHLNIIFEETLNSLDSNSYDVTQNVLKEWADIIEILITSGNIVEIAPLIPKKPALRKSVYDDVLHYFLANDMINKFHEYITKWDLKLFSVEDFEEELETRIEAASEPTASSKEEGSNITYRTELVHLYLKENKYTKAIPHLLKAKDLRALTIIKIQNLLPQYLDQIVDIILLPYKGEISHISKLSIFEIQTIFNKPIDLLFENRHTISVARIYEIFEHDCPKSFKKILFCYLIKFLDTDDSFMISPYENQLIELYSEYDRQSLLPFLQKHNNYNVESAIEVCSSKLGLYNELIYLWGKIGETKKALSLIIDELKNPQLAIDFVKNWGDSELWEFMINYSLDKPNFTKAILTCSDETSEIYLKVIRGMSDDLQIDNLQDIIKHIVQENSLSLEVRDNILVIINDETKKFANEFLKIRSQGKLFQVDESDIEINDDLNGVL
Briefly: pull-down.

B1: GST-Ypt7 (natural protein)
chain: MSSRKKNILKVIILGDSGVGKTSLMHRYVNDKYSQQYKATIGADFLTKEVTVDGDKVATMQVWDTAGQERFQSLGVAFYRGADCCVLVYDVTNASSFENIKSWRDEFLVHANVNSPETFPFVILGNKIDAEESKKIVSEKSAQELAKSLGDIPLFLTSAKNAINVDTAFEEIARSALQQNQADTEAFEDDYNDAINIRLDGENNSCSC
As to B1, the binding result is “binds”.

The record behind these values is PMC2542475 (The Journal of Cell Biology, 2008).
